Among the data in paper PMC314469, “Protein Interaction Networks by Proteome Peptide Scanning” (PLoS Biology, 2004) are normalised SPOT signal, Boehringer light units (BLU); mean over the file's lines of this peptide values, retold here.

Holding throughout (assay): SPOT array
Experiment [1] concerns the target T1, Boi1 SH3 (BOI1_YEAST), P38041.
T1 chain: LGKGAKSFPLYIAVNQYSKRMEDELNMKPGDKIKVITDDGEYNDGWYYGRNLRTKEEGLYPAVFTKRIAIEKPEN

Experiment [2] concerns the target T2, Myo5 SH3 (MYO5_YEAST), Q04439.
T2 chain: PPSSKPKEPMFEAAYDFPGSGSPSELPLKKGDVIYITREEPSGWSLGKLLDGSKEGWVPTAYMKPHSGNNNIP

Experiment [3] has as its target T3, Yfr024 SH3 (LSB3_YEAST), P43603.
T3 chain: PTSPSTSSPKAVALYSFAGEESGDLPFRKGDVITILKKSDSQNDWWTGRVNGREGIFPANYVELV

Experiment [4] deals with T4, Yhr016c SH3 (YSC84_YEAST), P32793.
T4 chain: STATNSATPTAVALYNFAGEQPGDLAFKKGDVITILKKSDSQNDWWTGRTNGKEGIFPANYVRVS

Experiment [5] addresses T5, Rvs167 SH3 (RV167_YEAST), P39743.
T5 chain: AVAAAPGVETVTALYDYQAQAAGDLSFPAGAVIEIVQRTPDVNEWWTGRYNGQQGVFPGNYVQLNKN

Experiment [6] concerns the target T6, Boi2 SH3 (BOI2_YEAST), P39969.
T6 chain: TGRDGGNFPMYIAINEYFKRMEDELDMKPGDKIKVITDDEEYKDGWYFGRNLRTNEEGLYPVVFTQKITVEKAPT

Experiment [7] concerns the target Sho1 SH3 (SHO1_YEAST), P40073.

Sho1 SH3 (SHO1_YEAST), P40073, sequence (P40073 295-366): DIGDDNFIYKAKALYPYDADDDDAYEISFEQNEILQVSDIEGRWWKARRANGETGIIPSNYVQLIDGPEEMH

Take TTRKKKDPNAPKRA [YPR052C 11-24]: the normalised SPOT signal, Boehringer light units (BLU); mean over the file's lines of this peptide in experiment [1] stood at 416; in experiment [2] it was 275; in experiment [3] it was 388; in experiment [4], 54; in experiment [5] it was 78.7; in experiment [6], 40.3. The same molecule gave a normalised SPOT signal, Boehringer light units (BLU); mean over the file's lines of this peptide in experiment [7] of 108.

With VAPNRIPPKVPVIN [YDR466W 429-442], the normalised SPOT signal, Boehringer light units (BLU); mean over the file's lines of this peptide in experiment [1] turned out to be 103; in experiment [2] it was 61100; in experiment [3], 213; in experiment [4], 17.7; in experiment [5] it was 55.9; in experiment [6], 25. Moreover, the normalised SPOT signal, Boehringer light units (BLU); mean over the file's lines of this peptide in experiment [7] was 19.2.

Take TTNSRLSPSSPSSS [YJR038C 2-15]: the normalised SPOT signal, Boehringer light units (BLU); mean over the file's lines of this peptide was 63 in experiment [1]; 161 in experiment [2]; 91.6 in experiment [3]; 27.4 in experiment [4]; 203 in experiment [5]; 27.3 in experiment [6]. The same molecule had a normalised SPOT signal, Boehringer light units (BLU); mean over the file's lines of this peptide in experiment [7] of 57.7.

Regarding TYIWRYLPAPPVSI [YOR116C 255-268], the normalised SPOT signal, Boehringer light units (BLU); mean over the file's lines of this peptide turned out to be 64.5 in experiment [1]; 444 in experiment [2]; 522 in experiment [3]; 173 in experiment [4]; 356 in experiment [5]; 23.6 in experiment [6]. The normalised SPOT signal, Boehringer light units (BLU); mean over the file's lines of this peptide in experiment [7] is 657.

TTRRKKDPNAPKRR [YBR089C-A 17-30]: the normalised SPOT signal, Boehringer light units (BLU); mean over the file's lines of this peptide was found to be 424 in experiment [1]; 999 in experiment [2]; 341 in experiment [3]; 19.6 in experiment [4]; 141 in experiment [5]; 13 in experiment [6]. In experiment [7], this molecule registered a normalised SPOT signal, Boehringer light units (BLU); mean over the file's lines of this peptide of 106.

Turning to TYLTRPLPSTPNED [YOL070C 348-361], the normalised SPOT signal, Boehringer light units (BLU); mean over the file's lines of this peptide in experiment [1] was 193; in experiment [2], 101; in experiment [3] it was 20100; in experiment [4], 47100; in experiment [5], 11900; in experiment [6], -0. For the same molecule, the normalised SPOT signal, Boehringer light units (BLU); mean over the file's lines of this peptide in experiment [7] came to 14200.

TTKHKAPPPPPPTA [YOR181W 179-192]: the normalised SPOT signal, Boehringer light units (BLU); mean over the file's lines of this peptide in experiment [1] was -0; in experiment [2] it was 1680; in experiment [3], 141; in experiment [4], 185; in experiment [5] it was 80; in experiment [6], 20.8. Also, in experiment [7], the normalised SPOT signal, Boehringer light units (BLU); mean over the file's lines of this peptide is 6.1.

For the molecule VSTIRSTPSQPIHS [YDR390C 176-189], the normalised SPOT signal, Boehringer light units (BLU); mean over the file's lines of this peptide came out at 93.9 in experiment [1]; 245 in experiment [2]; 177 in experiment [3]; 37.4 in experiment [4]; 68.8 in experiment [5]; 39.1 in experiment [6]. The same molecule had a normalised SPOT signal, Boehringer light units (BLU); mean over the file's lines of this peptide in experiment [7] of 59.8.

Take TTTIKNRPVPPPLP [YPL140C 79-92]: the normalised SPOT signal, Boehringer light units (BLU); mean over the file's lines of this peptide in experiment [1] came to 86.4; in experiment [2], 1870; in experiment [3] it was 290; in experiment [4] it was 32.8; in experiment [5], 598; in experiment [6], 0. The same molecule gave a normalised SPOT signal, Boehringer light units (BLU); mean over the file's lines of this peptide in experiment [7] of 50.1.

As for TVRTRRRPPPPPIP [YNL094W 462-475], the normalised SPOT signal, Boehringer light units (BLU); mean over the file's lines of this peptide amounted to 3490 in experiment [1]; 46200 in experiment [2]; 891 in experiment [3]; 91.7 in experiment [4]; 663 in experiment [5]; 12.6 in experiment [6]. Moreover, the normalised SPOT signal, Boehringer light units (BLU); mean over the file's lines of this peptide in experiment [7] was 95.5.

VSHSKYIPLKPIQD [YGL017W 314-327]: the normalised SPOT signal, Boehringer light units (BLU); mean over the file's lines of this peptide was 138 in experiment [1]; 298 in experiment [2]; 34.8 in experiment [3]; 25.7 in experiment [4]; 6.3 in experiment [5]; 29.9 in experiment [6]. In experiment [7], this molecule gave a normalised SPOT signal, Boehringer light units (BLU); mean over the file's lines of this peptide of 25.4.

Turning to TYGFRVRPDFPVFG [YMR295C 130-143], the normalised SPOT signal, Boehringer light units (BLU); mean over the file's lines of this peptide in experiment [1] came out at 12200; in experiment [2], 357; in experiment [3], 892; in experiment [4], 134; in experiment [5] it was 361; in experiment [6] it was 69.1. In experiment [7], this molecule showed a normalised SPOT signal, Boehringer light units (BLU); mean over the file's lines of this peptide of 71.3.

On to TVSDRLIPTSPQKT [YGR146C 10-23], for which the normalised SPOT signal, Boehringer light units (BLU); mean over the file's lines of this peptide in experiment [1] is 50; in experiment [2] it was 128; in experiment [3], 76.1; in experiment [4], 13; in experiment [5], 143; in experiment [6], 31.8. Besides, the normalised SPOT signal, Boehringer light units (BLU); mean over the file's lines of this peptide in experiment [7] is 60.1.

As for TTTYKSRPDRPKPV [YBR289W 757-770], the normalised SPOT signal, Boehringer light units (BLU); mean over the file's lines of this peptide in experiment [1] was 607; in experiment [2], 309; in experiment [3] it was 266; in experiment [4], 68.7; in experiment [5] it was 97.7; in experiment [6], 23.7. Besides, in experiment [7], the normalised SPOT signal, Boehringer light units (BLU); mean over the file's lines of this peptide is 44.7.
